Consider 1 protein from paper doi:10.1101/2025.02.04.636384 (bioRxiv, 2025).

The data set concerns the molecule itself. The experiment in a line: SEC.

B1: Aeropyrum pernix Kv (KvAP) channel, wild type (natural protein, UniProt Q9YDF8 1-295, looked up)
chain: MSVERWVFPGCSVMARFRRGLSDLGGRVRNIGDVMEHPLVELGVSYAALLSVIVVVVEYTMQLSGEYLVRLYLVDLILVIILWADYAYRAYKSGDPAGYVKKTLYEIPALVPAGLLALIEGHLAGLGLFRLVRLLRFLRILLIISRGSKFLSAIADAADKIRFYHLFGAVMLTVLYGAFAIYIVEYPDPNSSIKSVFDALWWAVVTATTVGYGDVVPATPIGKVIGIAVMLTGISALTLLIGTVSNMFQKILVGEPEPSCSPAKLAEMVSSMSEEEFEEFVRTLKNLRRLENSMK
As for B1, the “stoichiometry N” value turned out to be 4.

Broadly, the stoichiometry N is the number of molecules, sites or subunits per partner or assembly.
